Values quoted from earlier work in paper PMC7589189.
Read-outs that look alike come from different tables or passages of the source. Values belong to the substance of their own block, whether it stands above or below them.

Experiments:
[1] = biological target: ActRIIA (Homo sapiens) (UniProt P27037)
[2] = biological target: ALK1-Fc (Homo sapiens) (UniProt P37023); experiment: SPR
[3] = biological target: TβRII (Homo sapiens) (UniProt P37173)
[4] = biological target: TβRII (Homo sapiens) (UniProt P37173); remark: listed apart in the source
[5] = biological target: TβRII (Homo sapiens) (UniProt P37173); remark: listed apart in the source

Sequence of TβRII (Homo sapiens) (P37173 23-166): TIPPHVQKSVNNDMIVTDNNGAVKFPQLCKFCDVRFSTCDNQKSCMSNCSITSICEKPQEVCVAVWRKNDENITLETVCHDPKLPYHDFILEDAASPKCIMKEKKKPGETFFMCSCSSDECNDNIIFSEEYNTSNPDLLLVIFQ
Sequence of ALK1-Fc (Homo sapiens) (P37023 22-118): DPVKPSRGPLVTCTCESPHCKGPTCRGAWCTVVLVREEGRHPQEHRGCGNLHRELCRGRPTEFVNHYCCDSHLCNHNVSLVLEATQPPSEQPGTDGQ
Sequence of pro-BMP-9 (Q9UK05 320-429): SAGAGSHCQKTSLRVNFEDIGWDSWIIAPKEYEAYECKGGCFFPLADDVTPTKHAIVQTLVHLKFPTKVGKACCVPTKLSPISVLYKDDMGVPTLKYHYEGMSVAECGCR
Sequence of BMP-9 (Q9UK05 320-429): as above
Sequence of TGF-β3 (P10600 301-412): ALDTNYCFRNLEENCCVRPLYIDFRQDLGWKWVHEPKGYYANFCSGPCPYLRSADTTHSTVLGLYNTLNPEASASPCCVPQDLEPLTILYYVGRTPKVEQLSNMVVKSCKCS
Sequence of ActRIIA (Homo sapiens) (P27037 20-135): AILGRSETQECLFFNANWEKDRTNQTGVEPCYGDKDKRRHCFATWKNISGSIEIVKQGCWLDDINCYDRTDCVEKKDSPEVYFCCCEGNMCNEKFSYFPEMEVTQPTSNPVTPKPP
Sequence of BMP-7 (P18075 293-431): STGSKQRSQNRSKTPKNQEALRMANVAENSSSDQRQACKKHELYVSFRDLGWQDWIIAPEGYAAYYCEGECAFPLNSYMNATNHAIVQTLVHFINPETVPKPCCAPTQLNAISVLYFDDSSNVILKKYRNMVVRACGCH
Sequence of TGF-β1 (P01137 279-390): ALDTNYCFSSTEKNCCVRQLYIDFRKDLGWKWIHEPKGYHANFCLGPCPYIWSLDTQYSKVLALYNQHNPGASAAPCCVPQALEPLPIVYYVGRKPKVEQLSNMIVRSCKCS
Sequence of TGF-β2 (P61812 303-414): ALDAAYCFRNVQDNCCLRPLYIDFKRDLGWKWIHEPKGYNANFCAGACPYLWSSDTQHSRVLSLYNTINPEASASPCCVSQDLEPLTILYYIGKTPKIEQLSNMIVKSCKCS

Substance: BMP-7 (from UniProt P18075)
Kd [1]: 8 nM

Substance: TGF-β3 (from UniProt P10600)
Kd [3]: 0.5 nM

Substance: BMP-9 (from UniProt Q9UK05)
Kd [2]: 0.048 nM

Substance: TGF-β1 (from UniProt P01137)
Kd [5]: 0.2 nM

The next lines start with the values.

Kd [2]: 0.061 nM
Substance: pro-BMP-9 (from UniProt Q9UK05)

Kd [4]: > 10 nM
Substance: TGF-β2 (from UniProt P61812)
